For assay [1], the target named is T1, human CD40 expressed on CHO cells (human, UniProt P25942 21-277).
T1 construct: whole, on cells; also used for the reporter cells over-expressing human CD40; also called cellular CD40; CHO-CD40 cells
The assay is described as follows: FACS, CHO cells. In general terms: In flow cytometry, cells or beads pass a laser one at a time.

The target in assay [2] is T2, human B7H4 expressed on CHO cells (human, UniProt Q7Z7D3 25-282).
T2 construct: whole, on cells; also called VCTN1
T2 sequence (looked up): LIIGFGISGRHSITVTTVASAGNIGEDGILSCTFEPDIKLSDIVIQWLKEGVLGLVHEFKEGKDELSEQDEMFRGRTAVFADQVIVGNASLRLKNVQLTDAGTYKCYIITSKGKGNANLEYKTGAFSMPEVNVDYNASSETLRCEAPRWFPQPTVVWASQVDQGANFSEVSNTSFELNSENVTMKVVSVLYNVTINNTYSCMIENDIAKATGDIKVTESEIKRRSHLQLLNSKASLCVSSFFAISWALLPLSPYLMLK
As to the kind of experiment: FACS, CHO cells.

T1 sequence (P25942 21-277): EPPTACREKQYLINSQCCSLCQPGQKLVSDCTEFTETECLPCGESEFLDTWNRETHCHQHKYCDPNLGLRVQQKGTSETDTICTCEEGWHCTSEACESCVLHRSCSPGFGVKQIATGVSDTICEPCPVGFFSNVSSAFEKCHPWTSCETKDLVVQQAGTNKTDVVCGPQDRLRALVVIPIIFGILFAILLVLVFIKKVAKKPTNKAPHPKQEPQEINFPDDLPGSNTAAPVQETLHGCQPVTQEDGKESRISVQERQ

B1: LP3772 (antibody, human IgG4 S228P, kappa)
heavy: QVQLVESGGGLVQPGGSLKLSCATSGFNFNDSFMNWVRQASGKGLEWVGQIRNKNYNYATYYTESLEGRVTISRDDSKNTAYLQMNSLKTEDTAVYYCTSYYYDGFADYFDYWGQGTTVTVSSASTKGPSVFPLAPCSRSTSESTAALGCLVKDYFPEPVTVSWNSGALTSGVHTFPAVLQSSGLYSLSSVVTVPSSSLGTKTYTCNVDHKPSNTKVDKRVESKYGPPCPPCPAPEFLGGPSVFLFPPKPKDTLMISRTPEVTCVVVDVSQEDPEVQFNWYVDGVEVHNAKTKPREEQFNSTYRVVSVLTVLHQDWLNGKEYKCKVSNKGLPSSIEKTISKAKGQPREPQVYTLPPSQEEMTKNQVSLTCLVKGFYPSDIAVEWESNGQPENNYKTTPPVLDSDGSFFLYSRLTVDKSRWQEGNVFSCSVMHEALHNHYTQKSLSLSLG
light: DIQMTQSPSSLSASVGDRVTITCKASQNIYIYLNWYQQKPGKAPKLLIYNTNNLQTGVPSRFSGSGSGTDFTLTISSLQPEDFATYYCLQHSSRRTFGGGTKVEIKRTVAAPSVFIFPPSDEQLKSGTASVVCLLNNFYPREAKVQWKVDNALQSGNSQESVTEQDSKDSTYSLSSTLTLSKADYEKHKVYACEVTHQGLSSPVTKSFNRGEC
notes: VH-2/IgG4, VL-1/kappa
On to B1, for which, in assay [1], the binding result is given as “binds”.

B2: Ly623 (bispecific antibody, human IgG1, kappa)
heavy: EVQLVESGGGLVQPGGSLRLSCAASGFTFTDYTMDWVRQAPGKGLEWVADVNPNSGGSIYNQRFKGRFTLSVDRSKNTLYLQMNSLRAEDTAVYYCARNLGPSFYFDYWGQGTLVTVSSASTKGPSVFPLAPSSKSTSGGTAALGCLVKDYFPEPVTVSWNSGALTSGVHTFPAVLQSSGLYSLSSVVTVPSSSLGTQTYICNVNHKPSNTKVDKKVEPKSCDKTHTCPPCPAPELLGPSVFLFPPKPKDTLMISRTPEVTCVVVDVSHEDPEVKFNWYVDGVEVHNAKTKPREEQYNSTYRVVSVLTVLHQDWLNGKEYKCKVSNKALPAPIEKTISKAKGQPREPQVYTLPPSREEMTKNQVSLTCLVKGFYPSDIAVEWESNGQPENNYKTTPPVLDSDGSFFLYSKLTVDKSRWQQGNVFSCSVMHEALHNHYTQKSLSLSPGGGGGSGGGGSGGGGSGGGGSQVQLVESGGGLVQPGGSLKLSCATSGFNFNDYFMNWVRQASGKGLEWVGQIRNKNYNYATYYTESLEGRVTISRDDSKNTAYLQMNSLKTEDTAVYYCTSYYYDGFADYFDYWGQGTTVTVSSGGGGSGGGGSGGGGSGGGGSDIQMTQSPSSLSASVGDRVTITCKASQNIYIYLNWYQQKPGKAPKLLIYNTNNLQTGVPSRFSGSGSGTDFTLTISSLQPEDFATYYCLQHSSRRTFGGGTKVEIK
light: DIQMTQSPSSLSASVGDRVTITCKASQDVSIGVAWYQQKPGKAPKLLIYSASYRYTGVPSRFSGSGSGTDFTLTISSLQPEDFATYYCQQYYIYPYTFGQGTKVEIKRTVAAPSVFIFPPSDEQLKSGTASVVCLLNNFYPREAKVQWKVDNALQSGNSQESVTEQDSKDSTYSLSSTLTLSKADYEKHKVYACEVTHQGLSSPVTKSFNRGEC
notes: Ly591 HC (IgG1 mutated Fc)-TM740 scFv VH-VL + Ly591 LC
B2: the binding result in assay [1] was “binds”.

B3: Ly361 (chimeric) (antibody, human IgG1, kappa, V domains shown)
VH: EVQLVESGGDLVKPGGSLKLSCAASGFTFSSYGMSWVRQTPDKRLEWVAAISTGGSYTYYPDSVKGRFTISRDTATNTLYLQMSTLKSEDTAMYYCTRRGATGSWFAYWGQGTLVTVSA
VL: DILMTQSPSSMSVSLGDTVSITCHASQGINNNIGWLQRKPGKSFKGLIYHGTNLEDGVPSRFSGSGSGADYSLTISSLESEDFADYYCVQYVQFPRTFGGGTKLEIKR
notes: chimeric, human IgG1 constant region; also called hybridoma 14D3
In the case of B3, the binding result in assay [2] is “binds”.

B4: Ly486 (bispecific antibody, human IgG1, kappa)
heavy: EVQLVESGGGLVKPGGSLKLSCAASGFTFSDSGMHWVRQAPEKGLEWITYINSGSSTIYYADSVKGRFTISRDNAKNTLFLQMTSLRSEDTAMYYCARGRGYAMDYWGQGTSVTVSSASTKGPSVFPLAPSSKSTSGGTAALGCLVKDYFPEPVTVSWNSGALTSGVHTFPAVLQSSGLYSLSSVVTVPSSSLGTQTYICNVNHKPSNTKVDKKVEPKSCDKTHTCPPCPAPELLGPSVFLFPPKPKDTLMISRTPEVTCVVVDVSHEDPEVKFNWYVDGVEVHNAKTKPREEQYNSTYRVVSVLTVLHQDWLNGKEYKCKVSNKALPAPIEKTISKAKGQPREPQVYTLPPSREEMTKNQVSLTCLVKGFYPSDIAVEWESNGQPENNYKTTPPVLDSDGSFFLYSKLTVDKSRWQQGNVFSCSVMHEALHNHYTQKSLSLSPGGGGGSGGGGSGGGGSGGGGSDIQMTQSPSSLSASVGDRVTITCKASQNIYIYLNWYQQKPGKAPKLLIYNTNNLQTGVPSRFSGSGSGTDFTLTISSLQPEDFATYYCLQHSSRRTFGGGTKVEIKGGGGSGGGGSGGGGSGGGGSQVQLVESGGGLVQPGGSLKLSCATSGFNFNDYFMNWVRQASGKGLEWVGQIRNKNYNYATYYTESLEGRVTISRDDSKNTAYLQMNSLKTEDTAVYYCTSYYYDGFADYFDYWGQGTTVTVSS
light: EIVLTQSPTTMAASPGEKITIFCSASSSISSDFLHWYQQKPGFSPKLLIYRISNLASGVPARFSGSGSGTSYSLTIGTMEAEDVATYYCQQGSNVPRTFGGGTKLEIKRTVAAPSVFIFPPSDEQLKSGTASVVCLLNNFYPREAKVQWKVDNALQSGNSQESVTEQDSKDSTYSLSSTLTLSKADYEKHKVYACEVTHQGLSSPVTKSFNRGEC
notes: Ly366 HC (IgG1 mutated Fc)-TM740 scFv VL-VH + Ly366 LC
B4: the binding result in assay [2] and in assay [1] was “binds” each time.

B5: Ly825 (bispecific antibody, human IgG1, kappa)
heavy: EVQLVESGGGLVQPGGSLRLSCAASGFTFTDYTMDWVRQAPGKGLEWVADVNPNSGGSIYNQRFKGRFTLSVDRSKNTLYLQMNSLRAEDTAVYYCARNLGPSFYFDYWGQGTLVTVSSASTKGPSVFPLAPSSKSTSGGTAALGCLVKDYFPEPVTVSWNSGALTSGVHTFPAVLQSSGLYSLSSVVTVPSSSLGTQTYICNVNHKPSNTKVDKKVEPKSCDKTHTCPPCPAPELLGPSVFLFPPKPKDTLMISRTPEVTCVVVDVSHEDPEVKFNWYVDGVEVHNAKTKPREEQYNSTYRVVSVLTVLHQDWLNGKEYKCKVSNKALPAPIEKTISKAKGQPREPQVYTLPPSREEMTKNQVSLTCLVKGFYPSDIAVEWESNGQPENNYKTTPPVLDSDGSFFLYSKLTVDKSRWQQGNVFSCSVMHEALHNHYTQKSLSLSPG
light: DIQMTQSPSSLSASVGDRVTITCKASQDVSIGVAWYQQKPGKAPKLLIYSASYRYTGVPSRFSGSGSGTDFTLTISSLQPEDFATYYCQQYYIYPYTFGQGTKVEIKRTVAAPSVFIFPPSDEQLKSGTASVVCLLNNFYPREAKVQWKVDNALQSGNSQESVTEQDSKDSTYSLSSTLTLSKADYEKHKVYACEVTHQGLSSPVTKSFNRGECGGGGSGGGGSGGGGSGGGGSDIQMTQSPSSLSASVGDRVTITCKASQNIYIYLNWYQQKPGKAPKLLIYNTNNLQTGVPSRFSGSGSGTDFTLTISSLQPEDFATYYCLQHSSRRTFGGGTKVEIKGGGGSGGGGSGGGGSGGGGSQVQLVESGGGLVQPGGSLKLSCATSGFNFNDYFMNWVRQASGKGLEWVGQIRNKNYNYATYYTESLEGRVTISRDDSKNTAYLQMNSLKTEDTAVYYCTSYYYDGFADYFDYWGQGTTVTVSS
notes: Ly591 HC (IgG1 mutated Fc) + Ly591 LC-TM740 scFv VL-VH
Consider B5, for which the binding result in assay [1] is “binds”.

B6: Ly828 (bispecific antibody, human IgG1, kappa)
heavy: B5 heavy
light: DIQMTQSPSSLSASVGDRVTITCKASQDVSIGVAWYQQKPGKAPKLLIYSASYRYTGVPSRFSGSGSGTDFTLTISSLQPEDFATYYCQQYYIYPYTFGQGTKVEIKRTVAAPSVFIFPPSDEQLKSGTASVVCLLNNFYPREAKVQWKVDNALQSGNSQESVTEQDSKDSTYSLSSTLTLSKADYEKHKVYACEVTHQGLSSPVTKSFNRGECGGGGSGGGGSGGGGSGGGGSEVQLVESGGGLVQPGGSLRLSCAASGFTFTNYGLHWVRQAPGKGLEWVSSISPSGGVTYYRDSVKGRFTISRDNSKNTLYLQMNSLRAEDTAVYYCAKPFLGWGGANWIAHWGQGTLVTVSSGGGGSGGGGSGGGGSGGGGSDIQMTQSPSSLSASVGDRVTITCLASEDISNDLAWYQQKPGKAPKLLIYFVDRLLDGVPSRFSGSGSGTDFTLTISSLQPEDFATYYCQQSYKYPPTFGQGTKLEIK
notes: Ly591 HC (IgG1 mutated Fc) + Ly591 LC-TM559 scFv VH-VL
On to B6, for which the binding result in assay [1] was “binds”.

B7: Ly836 (bispecific antibody, human IgG1, kappa)
heavy: B5 heavy
light: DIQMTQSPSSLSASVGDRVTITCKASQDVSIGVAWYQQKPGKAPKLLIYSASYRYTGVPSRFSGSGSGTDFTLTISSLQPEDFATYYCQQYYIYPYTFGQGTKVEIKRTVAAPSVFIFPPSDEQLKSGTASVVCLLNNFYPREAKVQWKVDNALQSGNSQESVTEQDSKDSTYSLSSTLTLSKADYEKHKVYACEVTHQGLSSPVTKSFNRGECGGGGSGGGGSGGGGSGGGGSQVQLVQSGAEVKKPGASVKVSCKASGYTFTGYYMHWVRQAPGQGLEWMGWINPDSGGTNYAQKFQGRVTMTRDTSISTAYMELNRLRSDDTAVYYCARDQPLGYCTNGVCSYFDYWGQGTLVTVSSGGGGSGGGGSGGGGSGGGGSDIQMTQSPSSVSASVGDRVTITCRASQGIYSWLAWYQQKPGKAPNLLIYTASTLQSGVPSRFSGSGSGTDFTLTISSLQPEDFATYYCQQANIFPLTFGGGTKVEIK
notes: Ly591 HC (IgG1 mutated Fc) + Ly591 LC-Ly253 scFv VH-VL
Take B7: the binding result in assay [1] is listed as “binds”.

B8: Ly835 (bispecific antibody, human IgG1, kappa)
heavy: B5 heavy
light: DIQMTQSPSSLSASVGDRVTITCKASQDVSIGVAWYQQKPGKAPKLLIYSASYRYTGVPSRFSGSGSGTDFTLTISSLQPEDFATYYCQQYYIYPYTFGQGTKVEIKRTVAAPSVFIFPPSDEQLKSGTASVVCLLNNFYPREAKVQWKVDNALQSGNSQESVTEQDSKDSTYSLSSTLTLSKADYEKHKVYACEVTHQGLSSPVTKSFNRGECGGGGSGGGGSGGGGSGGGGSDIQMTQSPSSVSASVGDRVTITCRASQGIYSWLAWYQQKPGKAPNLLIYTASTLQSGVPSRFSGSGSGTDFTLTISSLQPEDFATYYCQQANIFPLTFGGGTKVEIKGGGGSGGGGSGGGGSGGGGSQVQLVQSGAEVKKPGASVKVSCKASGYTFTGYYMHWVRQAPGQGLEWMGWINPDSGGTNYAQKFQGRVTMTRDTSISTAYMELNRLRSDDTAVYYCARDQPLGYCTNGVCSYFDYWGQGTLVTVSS
notes: Ly591 HC (IgG1 mutated Fc) + Ly591 LC-Ly253 scFv VL-VH
Regarding B8, in assay [1], the binding result is on record as “binds”.

B9: Ly827 (bispecific antibody, human IgG1, kappa)
heavy: B5 heavy
light: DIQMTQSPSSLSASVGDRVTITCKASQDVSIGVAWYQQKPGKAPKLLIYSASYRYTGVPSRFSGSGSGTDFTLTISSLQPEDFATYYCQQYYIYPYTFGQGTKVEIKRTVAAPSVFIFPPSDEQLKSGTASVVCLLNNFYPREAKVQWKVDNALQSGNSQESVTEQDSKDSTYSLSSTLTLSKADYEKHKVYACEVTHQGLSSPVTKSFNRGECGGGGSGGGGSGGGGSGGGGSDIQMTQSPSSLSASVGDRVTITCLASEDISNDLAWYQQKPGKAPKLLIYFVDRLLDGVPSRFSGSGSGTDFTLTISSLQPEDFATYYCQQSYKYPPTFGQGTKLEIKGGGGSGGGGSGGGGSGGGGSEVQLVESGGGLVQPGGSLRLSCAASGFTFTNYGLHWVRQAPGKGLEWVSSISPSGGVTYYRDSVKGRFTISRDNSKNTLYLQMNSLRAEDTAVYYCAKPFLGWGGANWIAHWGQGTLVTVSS
notes: Ly591 HC (IgG1 mutated Fc) + Ly591 LC-TM559 scFv VL-VH
Regarding B9, the binding result in assay [1] is listed as “binds”.

B10: Ly826 (bispecific antibody, human IgG1, kappa)
heavy: B5 heavy
light: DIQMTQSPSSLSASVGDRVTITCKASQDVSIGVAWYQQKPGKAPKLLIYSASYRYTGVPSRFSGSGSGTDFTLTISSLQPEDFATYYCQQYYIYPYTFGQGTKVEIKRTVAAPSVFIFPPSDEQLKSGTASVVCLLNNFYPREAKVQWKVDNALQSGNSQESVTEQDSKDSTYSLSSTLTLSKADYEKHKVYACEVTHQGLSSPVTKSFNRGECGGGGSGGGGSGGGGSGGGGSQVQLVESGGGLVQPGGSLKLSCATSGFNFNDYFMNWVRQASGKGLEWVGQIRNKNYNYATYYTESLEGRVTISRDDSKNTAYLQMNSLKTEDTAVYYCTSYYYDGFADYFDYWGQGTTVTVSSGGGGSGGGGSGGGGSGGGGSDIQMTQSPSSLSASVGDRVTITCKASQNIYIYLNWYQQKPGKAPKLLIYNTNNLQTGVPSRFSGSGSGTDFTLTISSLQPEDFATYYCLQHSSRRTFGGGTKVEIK
notes: Ly591 HC (IgG1 mutated Fc) + Ly591 LC-TM740 scFv VH-VL
For the molecule B10, the binding result in assay [1] is on record as “binds”.

B11: Ly625 (bispecific antibody, human IgG1, kappa)
heavy: EVQLVESGGGLVQPGGSLRLSCAASGFTFTDYTMDWVRQAPGKGLEWVADVNPNSGGSIYNQRFKGRFTLSVDRSKNTLYLQMNSLRAEDTAVYYCARNLGPSFYFDYWGQGTLVTVSSASTKGPSVFPLAPSSKSTSGGTAALGCLVKDYFPEPVTVSWNSGALTSGVHTFPAVLQSSGLYSLSSVVTVPSSSLGTQTYICNVNHKPSNTKVDKKVEPKSCDKTHTCPPCPAPELLGPSVFLFPPKPKDTLMISRTPEVTCVVVDVSHEDPEVKFNWYVDGVEVHNAKTKPREEQYNSTYRVVSVLTVLHQDWLNGKEYKCKVSNKALPAPIEKTISKAKGQPREPQVYTLPPSREEMTKNQVSLTCLVKGFYPSDIAVEWESNGQPENNYKTTPPVLDSDGSFFLYSKLTVDKSRWQQGNVFSCSVMHEALHNHYTQKSLSLSPGGGGGSGGGGSGGGGSGGGGSEVQLVESGGGLVQPGGSLRLSCAASGFTFTNYGLHWVRQAPGKGLEWVSSISPSGGVTYYRDSVKGRFTISRDNSKNTLYLQMNSLRAEDTAVYYCAKPFLGWGGANWIAHWGQGTLVTVSSGGGGSGGGGSGGGGSGGGGSDIQMTQSPSSLSASVGDRVTITCLASEDISNDLAWYQQKPGKAPKLLIYFVDRLLDGVPSRFSGSGSGTDFTLTISSLQPEDFATYYCQQSYKYPPTFGQGTKLEIK
light: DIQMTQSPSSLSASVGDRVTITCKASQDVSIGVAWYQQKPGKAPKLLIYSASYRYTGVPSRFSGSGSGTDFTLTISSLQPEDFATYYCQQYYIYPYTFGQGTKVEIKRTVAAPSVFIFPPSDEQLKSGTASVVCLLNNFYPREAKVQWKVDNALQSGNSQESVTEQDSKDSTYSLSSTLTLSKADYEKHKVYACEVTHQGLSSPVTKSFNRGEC
notes: Ly591 HC (IgG1 mutated Fc)-TM559 (printed TM599) scFv VH-VL + Ly591 LC
B11: in assay [1], the binding result is reported as “binds”.

B12: Ly366 (chimeric) (antibody, human IgG1, kappa, V domains shown)
VH: EVQLVESGGGLVKPGGSLKLSCAASGFTFSDSGMHWVRQAPEKGLEWITYINSGSSTIYYADSVKGRFTISRDNAKNTLFLQMTSLRSEDTAMYYCARGRGYAMDYWGQGTSVTVSS
VL: EIVLTQSPTTMAASPGEKITIFCSASSSISSDFLHWYQQKPGFSPKLLIYRISNLASGVPARFSGSGSGTSYSLTIGTMEAEDVATYYCQQGSNVPRTFGGGTKLEIKR
notes: chimeric, human IgG1 constant region; also called hybridoma 25F3
As for B12, the binding result in assay [2] is recorded as “binds”.

B13: Ly624 (bispecific antibody, human IgG1, kappa)
heavy: EVQLVESGGGLVQPGGSLRLSCAASGFTFTDYTMDWVRQAPGKGLEWVADVNPNSGGSIYNQRFKGRFTLSVDRSKNTLYLQMNSLRAEDTAVYYCARNLGPSFYFDYWGQGTLVTVSSASTKGPSVFPLAPSSKSTSGGTAALGCLVKDYFPEPVTVSWNSGALTSGVHTFPAVLQSSGLYSLSSVVTVPSSSLGTQTYICNVNHKPSNTKVDKKVEPKSCDKTHTCPPCPAPELLGPSVFLFPPKPKDTLMISRTPEVTCVVVDVSHEDPEVKFNWYVDGVEVHNAKTKPREEQYNSTYRVVSVLTVLHQDWLNGKEYKCKVSNKALPAPIEKTISKAKGQPREPQVYTLPPSREEMTKNQVSLTCLVKGFYPSDIAVEWESNGQPENNYKTTPPVLDSDGSFFLYSKLTVDKSRWQQGNVFSCSVMHEALHNHYTQKSLSLSPGGGGGSGGGGSGGGGSGGGGSDIQMTQSPSSLSASVGDRVTITCLASEDISNDLAWYQQKPGKAPKLLIYFVDRLLDGVPSRFSGSGSGTDFTLTISSLQPEDFATYYCQQSYKYPPTFGQGTKLEIKGGGGSGGGGSGGGGSGGGGSEVQLVESGGGLVQPGGSLRLSCAASGFTFTNYGLHWVRQAPGKGLEWVSSISPSGGVTYYRDSVKGRFTISRDNSKNTLYLQMNSLRAEDTAVYYCAKPFLGWGGANWIAHWGQGTLVTVSS
light: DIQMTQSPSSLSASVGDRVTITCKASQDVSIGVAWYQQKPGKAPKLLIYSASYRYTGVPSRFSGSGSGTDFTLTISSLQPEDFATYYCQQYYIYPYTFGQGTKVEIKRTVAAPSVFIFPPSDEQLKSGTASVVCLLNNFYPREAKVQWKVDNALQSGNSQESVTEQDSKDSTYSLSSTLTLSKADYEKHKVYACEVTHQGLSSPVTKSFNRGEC
notes: Ly591 HC (IgG1 mutated Fc)-TM559 (printed TM599) scFv VL-VH + Ly591 LC
For the molecule B13, the binding result in assay [1] is “binds”.
